Self-cleavage data for 167 variants are collected here from the RNAGym collection of RNA variant scans (doi:10.7554/elife.80360).

Sequences and labels used below:
B1: Hairpin Ribozyme (parent)
chain: GUCCUCUUUCACGUGCGCGUGAAAGAGAGAAGUGAACCAGAGAAACACACGUUGUGGUAUAUUACCUGGUA

The series covers variants of B1. Kind of series: self-cleavage, relative activity (ratio to wild type); higher = more cleavage; co-transcriptional.
On to C6G G56A, for which the self-cleavage is 0.149.
Take C6G G56C: the self-cleavage is 0.175.
For C6G U7G, the self-cleavage stood at 0.131.
Then C6G U7C, with 0.299.
Next, C6G A35C: 0.499; C6G A43C: 0.11; C6G U33A: 0.155.
Next, C6A C37U: 0.505.
As for C6A C37A, the self-cleavage was found to be 0.236.
Next, C6A C46G: 0.189; C6G A71G: 0.574.
Then C6A U14A, with 0.612; and C6G U60A, with 0.496; and C6G U60G, with 0.31.
Next, C6G A36U: 0.215.
For C6A G56C, the self-cleavage stood at 0.128.
Next, C6G U9C: 0.436.
For the variant C6G C50G, the self-cleavage is 0.109.
Then C6G C50A, with 0.14; and C6G A59G, with 0.121.
Then C6G A59C, with 0.0783; and C6A U8G, with 0.447; and C6A U9G, with 0.419.
For the variant C6G G51U, the self-cleavage worked out at 0.44.
Then C6A G15A, with 0.54.
Next, C6U G13U: 0.6; C6G G40A: 0.207.
Next, C6G G40C: 0.0776; C6A A59G: 0.178; C6U A71U: 0.708.
On to C6U A71G, for which the self-cleavage is 0.82.
For the variant C6G A61C, the self-cleavage is 0.0806.
Then C6A A71U, with 0.423.
With C6A G51A, the self-cleavage amounted to 0.765.
Next, C6A U67C: 0.15; C6G G42C: 0.157; C6G G42A: 0.0986.
Then C6U C66U, with 0.309.
C6U C65G: the self-cleavage was 0.232.
Then C6U A49G, with 0.571; and C6U C10U, with 0.582; and C6U C10A, with 0.55.
Then C6U A31G, with 0.451.
In the case of C6G G25U, the self-cleavage came to 0.475.
With C6G A45C, the self-cleavage stood at 0.163.
Next, C6A A45C: 0.12; C6G G32A: 0.106; C6G G32U: 0.116.
Consider C6A A43U, for which the self-cleavage was 0.131.
Next, C6A A49C: 0.112.
Next, C6A A49G: 0.204.
Then C6G G13U, with 0.27.
In the case of C6A A41G, the self-cleavage was determined as 0.439.
Next, C6G C37A: 0.158; C6G C37G: 0.142.
Then C6U G21A, with 0.572; and C6G C38U, with 0.332.
Then C6G C38G, with 0.0998; and C6U G40C, with 0.14; and C6A G69C, with 0.236.
Consider C6A G69U, for which the self-cleavage stood at 0.121.
Take C6A C12G: the self-cleavage was 0.623.
Next, C6G G17C: 0.365.
Next, C6G G17A: 0.491.
Next, C6U C16A: 0.85.
Take C6G G21A: the self-cleavage came out at 0.179.
Consider C6A G42C, for which the self-cleavage worked out at 0.239.
Then C6G A41G, with 0.47; and C6G G15U, with 0.706; and C6A G17U, with 0.553.
Then C6A G19A, with 0.599; and C6U C37U, with 0.6; and C6U A30U, with 0.152.
Consider C6A C10A, for which the self-cleavage was found to be 0.404.
Then C6A U58G, with 0.559; and C6U A44U, with 0.12.
Then C6U G29U, with 0.12; and C6U C18A, with 0.885.
On to C6G A23C, for which the self-cleavage was determined as 0.122.
For C6G C48U, the self-cleavage worked out at 0.0659.
With C6U A47U, the self-cleavage was 0.0966.
Take C6U A47G: the self-cleavage came to 0.107.
Turning to C6U A47C, the self-cleavage amounted to 0.283.
Next, C6A G54U: 0.379; C6A G54A: 0.342.
As for C6U A28C, the self-cleavage came to 0.428.
In the case of C6U A28G, the self-cleavage is 0.734.
Turning to C6U A36G, the self-cleavage was 0.834.
As to C6A C50U, the self-cleavage was found to be 0.239.
Then C6A G13A, with 0.494; and C6A G13U, with 0.592; and C6G A11G, with 0.456.
Then C6G C10U, with 0.305.
Then C6U A41U, with 0.977; and C6U C38G, with 0.189; and C6U C38U, with 0.37.
Take C6G G57C: the self-cleavage was 0.124.
Next, C6U G15A: 0.794; C6U G15C: 0.722.
Then C6A G40A, with 0.236; and C6A G40C, with 0.109; and C6A G40U, with 0.103.
Take C6G A49G: the self-cleavage is 0.286.
Then C6G A49U, with 0.107; and C6A A39U, with 0.33.
Then C6U A22C, with 0.493; and C6U A22U, with 0.789.
Next, C6U A59G: 0.266.
Consider C6U A59C, for which the self-cleavage was 0.251.
Then C6U A59U, with 0.127.
Take C6G U20A: the self-cleavage came out at 0.242.
Then C6A A61U, with 0.182; and C6A A61G, with 0.137.
As for C6U A61U, the self-cleavage stood at 0.0757.
Then C6U A61G, with 0.155; and C6A U63G, with 0.191; and C6U C46G, with 0.204.
Next, C6U C46A: 0.0705.
Next, C6U A45C: 0.0819; C6A G68A: 0.176.
For the variant C6U A24C, the self-cleavage turned out to be 0.747.
Next, C6U G19C: 0.719; C6U G19A: 0.793; C6A U53G: 0.422.
Next, C6G G34A: 1.02; C6A U62C: 0.157; C6G U67C: 0.151.
Then C6G U67G, with 0.146; and C6G U14A, with 0.634; and C6G U14G, with 0.374.
In the case of C6A G25A, the self-cleavage worked out at 0.546.
Then C6G C65G, with 0.23; and C6G G29C, with 0.146.
Next, C6G G29A: 0.138.
Then C6G C16U, with 0.627.
Take C6G A39G: the self-cleavage was 0.197.
Next, C6U C12G: 0.661.
Then C6U C12A, with 0.656; and C6G, with 0.521.
Then C6U, with 0.826; and C6G G69C, with 0.115; and C6G G69U, with 0.188.
Regarding C6G A47C, the self-cleavage was 0.235.
Then C6G G19A, with 0.45.
Then C6G G19C, with 0.328.
Next, C6A A64G: 0.444; C6G U52C: 0.595; C6U A39G: 0.304.
In the case of C6G A24C, the self-cleavage came to 0.192.
As for C6G A24G, the self-cleavage came to 0.337.
Then C6A G57A, with 0.107; and C6A G57C, with 0.0868; and C6A G57U, with 0.246.
Take C6U G32A: the self-cleavage came out at 0.114.
Next, C6U G32U: 0.0839; C6U G32C: 0.0823; C6A U33G: 0.149.
As for C6A G34C, the self-cleavage is 1.08.
Take C6G C66U: the self-cleavage was determined as 0.173.
Then C6G C66A, with 0.239.
Next, C6G C18A: 0.645.
Then C6G C18U, with 0.613; and C6G C18G, with 0.395.
As to C6A U52A, the self-cleavage was found to be 0.588.
Next, C6A U52C: 0.619.
Then C6G A30C, with 0.156; and C6G A30G, with 0.14.
